According to publication PMC12529457, “Selection of DNA Aptamers Against Parathyroid Hormone for Electrochemical Impedimetric Biosensor System Development”:

Experiments:
Assay in all cases: fluorescent magnetic bead binding assay; peptide on beads, aptamer 100-2500 nM; Bead assay: SELEX conditions (PBS, room temperature), 30 min incubation then wash, pH not stated; EIS: 30 min at ambient temperature, PBS wash, read in 0.1 M KCl with 5 mM ferri/ferrocyanide
Settings in all cases: protein: commercial; tags: none stated; amine-coupled to carboxy magnetic beads
PTH (1-34) = molecular target: T1, PTH (1-34) (UniProt P01270 32-65)
T1 chain: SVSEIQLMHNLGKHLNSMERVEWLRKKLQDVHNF

PTH (1-84) = molecular target: T2, PTH (1-84) (UniProt P01270 32-115)
T2 sequence: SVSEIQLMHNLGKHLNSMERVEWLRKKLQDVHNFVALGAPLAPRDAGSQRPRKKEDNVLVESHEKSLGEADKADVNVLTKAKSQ

PTH (53-84) = molecular target: T3, PTH (53-84) (UniProt P01270 84-115)
T3 chain: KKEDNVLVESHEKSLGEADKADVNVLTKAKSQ

In the case of GCGTGGTATGTGCATCGTCAGTGAGGGGTTGGCGGCCGAG (ssDNA) [Aptamer-PTH (1-34)], the Kd (PTH (1-34)) is reported as 516 ± 41 nM.

TATTGGTATGTGCGTCGTCGGTGACCTCTTTCACGGCCGG (ssDNA) [Aptamer-PTH (1-84)] was tested, and the Kd (PTH (1-84)) was 340 ± 23.3 nM.

Work on GCGTGGTATGTGCGTCGTCGCTAATGAATTTGTAGCCTAC (ssDNA) [Aptamer-PTH (53-84)] yielded a Kd (PTH (53-84)) of 220 ± 57.5 nM.
